# Molecular target: the molecule itself
# Assay: SEC; analytical SEC, S200 Increase 3.2/300 GL, 20 mM Tris pH 7.5, 100 mM NaCl, 0.5 mM TCEP; 0.1 mL of 1.2 mg/mL (5 uM hexamer/pseudohexamer) Msp1 with 2 mM ATP, 2 mM MgCl2; 0.1 mL/min
row,Protein,stoichiometry N
1,"His6‐WT‐EQ‐2xStrep Dimer (covalently linked Msp1 dimer, soluble) (enzyme, Msp1, subunit 1, wild type, deletion of the first 32 residues to remove the TMD; 35-residue flexible linker between the two subunits; Msp1, subunit 2, Walker B mutant E193Q, deletion of the first 32 residues to remove the TMD; Two Msp1 subunits on one chain; on SEC a mixture of the single chain (dimer) and the pseudohexamer (three chains); also called WT‐EQ dimer; source: E. coli BL21 pRIL, …) DVESGPLSGKSRESKAKQSLQWEKLVKRSPALAEVTLDAYERTILSSIVTPDEINITFQDIGGLDPLISDLHESVIYPLMMPEVYSNSPLLQAPSGVLLYGPPGCGKTMLAKALAKESGANFISIRMSSIMDKWYGESNKIVDAMFSLANKLQPCIIFIDEIDSFLRERSSTDHEVTATLKAEFMTLWDGLLNNGRVMIIGATNRINDIDDAFLRRLPKRFLVSLPGSDQRYKILSVLLKDTKLDEDEFDLQLIADNTKGFSGSDLKELCREAALDAAKEYIKQKRQLIDSGTIDVNDTSSLKIRPLKTKDFTKKLRMDATSTLSSQPLDASGSGGSEASASAGAAGSGDGSGSGGSEGGTSGATDVESGPLSGKSRESKAKQSLQWEKLVKRSPALAEVTLDAYERTILSSIVTPDEINITFQDIGGLDPLISDLHESVIYPLMMPEVYSNSPLLQAPSGVLLYGPPGCGKTMLAKALAKESGANFISIRMSSIMDKWYGESNKIVDAMFSLANKLQPCIIFIDQIDSFLRERSSTDHEVTATLKAEFMTLWDGLLNNGRVMIIGATNRINDIDDAFLRRLPKRFLVSLPGSDQRYKILSVLLKDTKLDEDEFDLQLIADNTKGFSGSDLKELCREAALDAAKEYIKQKRQLIDSGTIDVNDTSSLKIRPLKTKDFTKKLRMDATSTLSSQPLD",3
2,"His6‐EQ‐WT‐2xStrep Dimer (covalently linked Msp1 dimer, soluble) (enzyme, Msp1, subunit 1, Walker B mutant E193Q, deletion of the first 32 residues to remove the TMD; 35-residue flexible linker between the two subunits; Msp1, subunit 2, wild type, deletion of the first 32 residues to remove the TMD; Two Msp1 subunits on one chain; on SEC a mixture of the single chain (dimer) and the pseudohexamer (three chains); also called EQ‐WT dimer; source: E. coli BL21 pRIL, …) DVESGPLSGKSRESKAKQSLQWEKLVKRSPALAEVTLDAYERTILSSIVTPDEINITFQDIGGLDPLISDLHESVIYPLMMPEVYSNSPLLQAPSGVLLYGPPGCGKTMLAKALAKESGANFISIRMSSIMDKWYGESNKIVDAMFSLANKLQPCIIFIDQIDSFLRERSSTDHEVTATLKAEFMTLWDGLLNNGRVMIIGATNRINDIDDAFLRRLPKRFLVSLPGSDQRYKILSVLLKDTKLDEDEFDLQLIADNTKGFSGSDLKELCREAALDAAKEYIKQKRQLIDSGTIDVNDTSSLKIRPLKTKDFTKKLRMDATSTLSSQPLDASGSGGSEASASAGAAGSGDGSGSGGSEGGTSGATDVESGPLSGKSRESKAKQSLQWEKLVKRSPALAEVTLDAYERTILSSIVTPDEINITFQDIGGLDPLISDLHESVIYPLMMPEVYSNSPLLQAPSGVLLYGPPGCGKTMLAKALAKESGANFISIRMSSIMDKWYGESNKIVDAMFSLANKLQPCIIFIDEIDSFLRERSSTDHEVTATLKAEFMTLWDGLLNNGRVMIIGATNRINDIDDAFLRRLPKRFLVSLPGSDQRYKILSVLLKDTKLDEDEFDLQLIADNTKGFSGSDLKELCREAALDAAKEYIKQKRQLIDSGTIDVNDTSSLKIRPLKTKDFTKKLRMDATSTLSSQPLD",3
3,"His6‐TEV‐Msp1 E193Q Monomer (enzyme, UniProt P28737 33-362, looked up, Msp1 with the Walker B mutation E193Q, soluble construct: deletion of the first 32 residues as stated for the soluble constructs; A TEV site follows the His6 tag; No Strep tag; also called EQ; EQ monomer; source: E. coli BL21 pRIL, purified (Ni-NTA)) DVESGPLSGKSRESKAKQSLQWEKLVKRSPALAEVTLDAYERTILSSIVTPDEINITFQDIGGLDPLISDLHESVIYPLMMPEVYSNSPLLQAPSGVLLYGPPGCGKTMLAKALAKESGANFISIRMSSIMDKWYGESNKIVDAMFSLANKLQPCIIFIDQIDSFLRERSSTDHEVTATLKAEFMTLWDGLLNNGRVMIIGATNRINDIDDAFLRRLPKRFLVSLPGSDQRYKILSVLLKDTKLDEDEFDLQLIADNTKGFSGSDLKELCREAALDAAKEYIKQKRQLIDSGTIDVNDTSSLKIRPLKTKDFTKKLRMDATSTLSSQPLD",6
